Data from patent publication US20150275215, “NEUTRALIZING RNA APTAMERS AGAINST PDGFBETA AND USES THEREOF IN THE THERAPY AND DIAGNOSIS OF HYPERPROLIFERATIVE DISEASES” (CONSIGLIO NAZIONALE DELLE RICERCHE, published 2015).

B1: Gint4 (ssRNA)
RNA: GGGAGACAAGAAUAAACGCUCAAUCAUAAGAGGUAUCACAUUGUCGUGGGGCAUCGAGUAAAUGCAAUUCGACAGGAGGCUCACAACAGGC
modifications: 2'-F all pyrimidines

Assays:
[1] = biological target: PDGFRbeta extracellular domain (EC-PDGFRβ) (Homo sapiens, UniProt P09619 P09619:33-532); test: filter; 1 nM radiolabeled RNA, 1-1000 nM protein; unrelated aptamer background subtracted; conditions: tags: soluble, R&D Systems; label: 5'-32P
PDGFRbeta extracellular domain (EC-PDGFRβ), sequence (P09619 33-532, one chain of several): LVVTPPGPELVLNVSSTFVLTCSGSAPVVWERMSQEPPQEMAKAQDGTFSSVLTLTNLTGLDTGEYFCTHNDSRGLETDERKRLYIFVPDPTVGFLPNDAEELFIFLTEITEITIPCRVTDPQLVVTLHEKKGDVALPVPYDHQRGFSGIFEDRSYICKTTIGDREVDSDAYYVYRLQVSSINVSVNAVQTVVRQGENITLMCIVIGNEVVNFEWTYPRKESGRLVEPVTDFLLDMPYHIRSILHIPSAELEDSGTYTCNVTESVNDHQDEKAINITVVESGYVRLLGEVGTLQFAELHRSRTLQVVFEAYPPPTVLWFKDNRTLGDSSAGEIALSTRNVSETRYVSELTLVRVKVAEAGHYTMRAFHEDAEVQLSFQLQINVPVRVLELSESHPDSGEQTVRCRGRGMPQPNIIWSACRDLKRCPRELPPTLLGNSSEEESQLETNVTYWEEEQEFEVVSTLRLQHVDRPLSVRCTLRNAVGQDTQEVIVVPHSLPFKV

[2] = biological target: PDGFRalpha extracellular domain (EC-PDGFRα) (Homo sapiens, UniProt P16234 P16234:24-528); test: filter; no saturable binding detectable up to 1000 nM; conditions: tags: soluble, R&D Systems; label: 5'-32P
PDGFRalpha extracellular domain (EC-PDGFRα), sequence (P16234 24-528, one chain of several): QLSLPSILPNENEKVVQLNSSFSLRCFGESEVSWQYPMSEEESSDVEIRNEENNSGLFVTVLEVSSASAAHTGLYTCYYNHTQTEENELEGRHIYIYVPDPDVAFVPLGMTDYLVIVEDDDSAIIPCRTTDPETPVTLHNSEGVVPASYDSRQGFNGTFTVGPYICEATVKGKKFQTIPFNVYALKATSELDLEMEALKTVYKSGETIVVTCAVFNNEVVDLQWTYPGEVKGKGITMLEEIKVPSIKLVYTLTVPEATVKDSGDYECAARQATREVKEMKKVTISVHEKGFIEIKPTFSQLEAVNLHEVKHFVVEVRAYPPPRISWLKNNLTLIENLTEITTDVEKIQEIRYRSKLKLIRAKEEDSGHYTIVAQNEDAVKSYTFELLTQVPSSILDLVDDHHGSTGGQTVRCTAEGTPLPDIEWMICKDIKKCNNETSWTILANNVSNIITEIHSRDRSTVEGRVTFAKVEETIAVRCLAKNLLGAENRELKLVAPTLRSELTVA

| Binder | Kd [1] [nM] | binding result [2] |
| --- | --- | --- |
| B1 | 10.4 | – |
| UGUCGUGGGGCAUCGAGUAAAUGCAAUUCGACA (ssRNA, 2'-F all pyrimidines) [Gint4.T] | 9.6 | no binding |
